Measurements as given in patent US10914725B2, “Culture medium additive, culture medium composition, and method for culturing cells or tissue using same” (NISSAN CHEMICAL INDUSTRIES, LTD., priority 2015, dated 2021).

Test system: human ovarian cancer cell line SKOV3
Test: Cell proliferation test by dispersing SKOV3 cells with growth factors (Experimental Example 4)
Format: cell-based
Settings: 10 days
Method: By a method similar to the preparation method of medium composition in Analysis Example 1, a medium composition containing 10 (v/v) % FBS, and 0.03 (w/v) % of low-molecular agar in DMEM (manufactured by Wako Pure Chemical Industries, Ltd.) was prepared.
Then, human ovarian cancer cell line SKOV3 (manufactured by DS PHARMA BIOMEDICAL CO., LTD.) was suspended in the above-mentioned medium composition containing low-molecular agar at 37,000 cells/mL, and dispensed to the wells of a 96 well flat plane ultra-low attachment surface microplate (manufactured by Corning Incorporated, #3474) at 135 μL per 1 well. The plate was stood in a CO2 incubator (37° C., 5% CO2), and a growth factor was added the next day. A similar operation was performed with 10 (v/v) % FBS-containing DMEM free of low-molecular agar. As a growth factor, human heparin bindability epithelial cell growth factor (hHB-EGF) (manufactured by PeproTech, Inc.) at a final concentration of 30 ng/mL or 100 ng/mL, human epithelial cell growth factor (hEGF) (manufactured by PeproTech, Inc.) and human transforming growth factor α (hTGFα) (manufactured by PeproTech, Inc.) each at a final concentration of 1 ng/mL, 3 ng/mL or 10 ng/mL were added by 15 μL per 1 well.
Successively, the plate was cultured in a standing state in a CO2 incubator (37° C., 5% CO2) for 10 days. As a negative control, DMEM in an amount equal to that of a growth factor was added. CellTiter-Glo Luminescent Cell Viability Assay (manufactured by Promega) (100 μL) was added to the cell culture medium after culturing for 10 days, stood for 10 min at room temperature, and the amount of luminescence was measured by a microplate reader (“FlexStation 3”, manufactured by Molecular Devices) and according to the protocol recommended by Promega. The amount of luminescence of the medium composition alone was subtracted, whereby the number of viable cells was measured.
The relative cell number when the amount of luminescence of the negative control is 1 was determined from the amount of luminescence (corresponding to the number of SKOV3 cells) after culturing for 10 days after the addition of the growth factor, and shown in Table 11.

Row | Molecule | relative cell number (negative control = 1) (growth factor 30 ng/mL, low-molecular agar 0 (w/v)%) | relative cell number (negative control = 1) (growth factor 30 ng/mL, low-molecular agar 0.03 (w/v)%) | relative cell number (negative control = 1) (growth factor 100 ng/mL, low-molecular agar 0 (w/v)%) | relative cell number (negative control = 1) (growth factor 100 ng/mL, low-molecular agar 0.03 (w/v)%) | relative cell number (negative control = 1) (growth factor 1 ng/mL, low-molecular agar 0 (w/v)%) | relative cell number (negative control = 1) (growth factor 1 ng/mL, low-molecular agar 0.03 (w/v)%) | relative cell number (negative control = 1) (growth factor 3 ng/mL, low-molecular agar 0 (w/v)%) | relative cell number (negative control = 1) (growth factor 3 ng/mL, low-molecular agar 0.03 (w/v)%) | relative cell number (negative control = 1) (growth factor 10 ng/mL, low-molecular agar 0 (w/v)%) | relative cell number (negative control = 1) (growth factor 10 ng/mL, low-molecular agar 0.03 (w/v)%)
1 | hHB-EGF: human heparin bindability epithelial cell growth factor (PeproTech) (protein, UniProt Q99075 63-148, looked up) Heparin-binding EGF-like …: DLQEADLDLLRVTLSSKPQALATPNKEEHGKRKKKGKGLGKKRDPCLRKYKDFCIHGECKYVKELRAPSCICHPGYHGERCHGLSL | 1.358 | 1.774 | 1.451 | 1.748 | – | – | – | – | – | –
2 | hEGF: human epithelial cell growth factor (PeproTech) (protein, UniProt P01133 23-1207, looked up, Pro-epidermal growth factor) Pro-epidermal growth factor: PQHWSCPEGTLAGNGNSTCVGPAPFLIFSHGNSIFRIDTEGTNYEQLVVDAGVSVIMDFHYNEKRIYWVDLERQLLQRVFLNGSRQERVCNIEKNVSGMAINWINEEVIWSNQQEGIITVTDMKGNNSHILLSALKYPANVAVDPVERFIFWSSEVAGSLYRADLDGVGVKALLETSEKITAVSLDVLDKRLFWIQYNREGSNSLICSCDYDGGSVHISKHPTQHNLFAMSLFGDRIFYSTWKMKTIWIANKHTGKDMVRINLHSSFVPLGELKVVHPLAQPKAEDDTWEPEQKLCKLRKGNCSSTVCGQDLQSHLCMCAEGYALSRDRKYCEDVNECAFWNHGCTLGCKNTPGSYYCTCPVGFVLLPDGKRCHQLVSCPRNVSECSHDCVLTSEGPLCFCPEGSVLERDGKTCSGCSSPDNGGCSQLCVPLSPVSWECDCFPGYDLQLDEKSCAASGPQPFLLFANSQDIRHMHFDGTDYGTLLSQQMGMVYALDHDPVENKIYFAHTALKWIERANMDGSQRERLIEEGVDVPEGLAVDWIGRRFYWTDRGKSLIGRSDLNGKRSKIITKENISQPRGIAVHPMAKRLFWTDTGINPRIESSSLQGLGRLVIASSDLIWPSGITIDFLTDKLYWCDAKQSVIEMANLDGSKRRRLTQNDVGHPFAVAVFEDYVWFSDWAMPSVMRVNKRTGKDRVRLQGSMLKPSSLVVVHPLAKPGADPCLYQNGGCEHICKKRLGTAWCSCREGFMKASDGKTCLALDGHQLLAGGEVDLKNQVTPLDILSKTRVSEDNITESQHMLVAEIMVSDQDDCAPVGCSMYARCISEGEDATCQCLKGFAGDGKLCSDIDECEMGVPVCPPASSKCINTEGGYVCRCSEGYQGDGIHCLDIDECQLGEHSCGENASCTNTEGGYTCMCAGRLSEPGLICPDSTPPPHLREDDHHYSVRNSDSECPLSHDGYCLHDGVCMYIEALDKYACNCVVGYIGERCQYRDLKWWELRHAGHGQQQKVIVVAVCVVVLVMLLLLSLWGAHYYRTQKLLSKNPKNPYEESSRDVRSRRPADTEDGMSSCPQPWFVVIKEHQDLKNGGQPVAGEDGQAADGSMQPTSWRQEPQLCGMGTEQGCWIPVSSDKGSCPQVMERSFHMPSYGTQTLEGGVEKPHSLLSANPLWQQRALDPPHQMELTQ | – | – | – | – | 1.380 | 1.413 | 1.392 | 1.745 | 1.678 | 1.984
